According to patent US20230340055A1 (published 2023):

Tests used:
[1] = biological target: T1, IL-2Rαβγ (trimeric high-affinity IL-2 receptor), human, on cells (human, UniProt P01589 22-272; P14784 27-551; P31785 23-369); assay: cell-based or functional assay
T1 sequence (looked up) 1: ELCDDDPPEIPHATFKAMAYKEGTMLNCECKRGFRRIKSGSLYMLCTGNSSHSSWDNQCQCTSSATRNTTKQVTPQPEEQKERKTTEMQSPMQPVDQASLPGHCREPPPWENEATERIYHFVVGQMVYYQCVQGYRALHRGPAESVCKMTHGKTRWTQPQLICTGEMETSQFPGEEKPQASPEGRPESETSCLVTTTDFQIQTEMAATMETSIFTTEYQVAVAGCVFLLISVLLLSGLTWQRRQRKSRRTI
T1 sequence (looked up) 2: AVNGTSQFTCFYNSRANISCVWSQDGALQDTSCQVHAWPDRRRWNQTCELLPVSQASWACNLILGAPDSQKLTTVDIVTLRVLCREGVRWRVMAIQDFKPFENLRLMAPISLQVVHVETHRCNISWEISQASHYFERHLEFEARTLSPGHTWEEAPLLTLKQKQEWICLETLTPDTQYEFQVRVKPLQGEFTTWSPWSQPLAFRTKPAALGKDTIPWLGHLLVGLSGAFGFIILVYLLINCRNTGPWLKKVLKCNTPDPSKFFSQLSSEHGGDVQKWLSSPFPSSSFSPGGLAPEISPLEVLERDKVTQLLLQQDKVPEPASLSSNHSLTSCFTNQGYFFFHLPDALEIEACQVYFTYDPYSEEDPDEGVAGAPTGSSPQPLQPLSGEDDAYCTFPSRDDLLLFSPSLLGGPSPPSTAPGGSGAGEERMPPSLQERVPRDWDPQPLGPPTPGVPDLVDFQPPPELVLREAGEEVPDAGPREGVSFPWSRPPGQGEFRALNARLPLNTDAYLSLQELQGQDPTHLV
T1 sequence (looked up) 3: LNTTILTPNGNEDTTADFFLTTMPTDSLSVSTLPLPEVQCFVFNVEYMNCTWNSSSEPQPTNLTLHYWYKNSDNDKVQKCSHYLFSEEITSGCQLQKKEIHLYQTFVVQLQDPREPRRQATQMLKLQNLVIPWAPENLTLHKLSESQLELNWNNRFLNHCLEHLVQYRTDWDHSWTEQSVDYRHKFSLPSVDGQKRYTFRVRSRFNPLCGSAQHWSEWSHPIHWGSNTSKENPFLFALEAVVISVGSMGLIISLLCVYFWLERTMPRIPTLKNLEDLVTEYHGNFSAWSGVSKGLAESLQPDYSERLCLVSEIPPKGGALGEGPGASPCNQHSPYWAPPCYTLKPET

[2] = biological target: T2, Human IL-2 Receptor alpha, Fc-Tag (Symansis, New Zealand) (human, UniProt P01589 22-240); assay: calculated from the SPR KD values of Example 15; reference protein 5a
T2 construct: extracellular domain; Bought reagent; also called IL-2Rα; IL-2Rα-Fc; not shown: Fc-Tag (captured by anti-human IgG (Fc) antibody)
T2 sequence (looked up): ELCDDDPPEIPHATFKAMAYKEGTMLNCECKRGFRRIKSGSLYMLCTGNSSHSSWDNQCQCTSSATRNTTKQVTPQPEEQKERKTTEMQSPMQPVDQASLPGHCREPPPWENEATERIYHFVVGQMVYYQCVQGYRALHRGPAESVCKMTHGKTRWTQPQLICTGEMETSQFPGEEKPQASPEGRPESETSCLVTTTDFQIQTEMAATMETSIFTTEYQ
Procedure: For the determination of binding kinetics to IL-2Rα the following chip preparation was used: Human IL-2 Receptor alpha, Fc-Tag (Symansis, New Zealand) was diluted in HBS-EP running buffer (GE Healthcare, 10 mM HEPES, 150 mM NaCl, 3 mM EDTA, 0.05% Surfactant P20, pH 7.4) to approx. 0.25 µg/mL and immobilized at a flow rate of 50 µL/min for 60 s to achieve 90 - 110 response units (RU).
For the determination of binding kinetics to IL-2Rβ the following chip preparation was used: Human IL-2 Receptor beta, Fc-Tag (Symansis, New Zealand) was diluted in HBS-EP running buffer (GE Healthcare, 10 mM HEPES, 150 mM NaCl, 3 mM EDTA, 0.05% Surfactant P20, pH 7.4) to around 0.25 µg/mL and immobilized at a flow rate of 50 µL/min for 60 s to achieve 300 - 330 response units (RU).
(50 µL/min flow rate, 60 s contact time, 300 s dissociation time). Double referenced data (subtracted data from the reference flow cell and the buffer only samples) was analysed via a kinetic fit (1:1 binding model) to determine KD, kₐ and kd. Regeneration after each cycle was performed with 3 M MgCl₂.

B1: protein 6 (ligand)
chain: APTSSSTKKTQLQLEHLLLDLQMILNGINNYKNPKLTFGNSTKFYMPKKATELKHLQCLEEELKPLEEVLNLAQSKNFHLRPRDLISNINVIVLELKGSETTFMCEYADETATIVEFLNRWITFSQSIISTLT
modifications: glycosylated (same sequence with the N-glycosylation motif FGNST as protein 1f); glycan sites not analysed separately for protein 6
fold lower potency than 1d, pSTAT5, Tregs (human PBMCs) [1]: ~1900 fold | ratio of Ratio protein 6 to Ratio protein 5a (KD to IL-2Rα / KD to IL-2Rβ) [2]: > 100
